Data set [1] addresses T1, QsdR (TetR-family repressor) (Rhodococcus erythropolis R138) (UniProt A0A0C2W9F0).
T1 sequence: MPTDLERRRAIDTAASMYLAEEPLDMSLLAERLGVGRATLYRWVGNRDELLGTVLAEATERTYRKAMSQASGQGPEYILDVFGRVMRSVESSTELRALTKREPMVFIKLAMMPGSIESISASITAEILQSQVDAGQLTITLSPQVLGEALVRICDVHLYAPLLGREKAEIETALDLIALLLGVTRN
Nature of the data set: EMSA. The following applies: LightShift Chemiluminescent EMSA Kit (Thermo Scientific) as per manufacturer, 20 ul reaction; buffer, salt, pH and temperature not stated. For orientation: Mobility shift assays separate free from complexed probe on a gel.

Data set [2] concerns the target T1, QsdR (TetR-family repressor) (Rhodococcus erythropolis R138). Description: competition. The following applies: LightShift Chemiluminescent EMSA Kit (Thermo Scientific) as per manufacturer, 20 ul reaction; buffer, salt, pH and temperature not stated.
The target in data set [3] is T2, QsdR (Rhodococcus erythropolis, UniProt A0A0C2W9F0).
T2 construct: gene I3517_23075; full-length qsdR ORF in pET19, His-tagged (tag kept), expressed in E. coli BL21(DE3), Ni-NTA; 186 residues, asymmetric dimer
T2 sequence (A0A0C2W9F0 1-186): T1 sequence
Description: EMSA, release of QsdR from biotin-labelled qsdR-qsdA intergenic DNA. The following applies: ligand/QsdR molecule ratio 0.1 to 100; 2 μg His-tagged QsdR, 0.4 ng DNA; effector that relieves DNA binding.

As for “GGTAGGCATCGGGACATTCTCTCCGGTTGTCCGGTACTGCACAATTTCGGCGGTCGAACAGAGGTGGGCTTCGGGTGGCTCGAGCCTATTGACGAACCAAGCGACGTGAGACACACTAGCTCATTGTCTCATGTTAGTGATGGCGATCACAGTCAGGGGTTCGATCGATGAG (double strand)”, the binding result in data set [1] is reported as “binds”. With “GGTAGGCATCGGGACATTCTCTCCGGTTGTCCGGTACTGCACAATTTCGGCGGTCGAACAGAGGTGGGCTTCGGGTGGCTCGAGCCTATTGACGAACCAAGCGACGTGAGACACACTAGCTCATTGTCTCATGTTAGTGATGGCGATCACAGTCAGGGGTTCGATCGATGAG (double strand) [unlabeled qsdR-qsdA intergenic competitor]”, in data set [2], the binding entry is recorded as “binds”. Take `N[C@H]1CCOC1=O` [HSL, homoserine lactone]: the “EMSA, release of QsdR from biotin-labelled qsdR-qsdA intergenic DNA” value in data set [3] is on record as “Addition of increased amounts of HSL induced a proportional increase in free DNA”. “CATTCCTCAAGTGCGCCATCGAAGAACCTGGTCTGACTCCCGGTGTCGAGCGTGTGATGCGAGCGGTCGGTCAGGCGCAGGTCGAAACCGGGGTACCGATCACGGTTCACACGAACCCGCACACGGAATCGGGCCTCGTTGCGCAGAAGGTTCTGGCCGAGGAAGGTGCAGATCTGA (double strand) [qsdA internal fragment (negative control)]”: the binding entry in data set [1] is “no binding”.

These data come from article PMC6262395, “A Rhodococcal Transcriptional Regulatory Mechanism Detects the Common Lactone Ring of AHL Quorum-Sensing Signals and Triggers the Quorum-Quenching Response” (Frontiers in Microbiology, 2018).
